Assay results published in US20240117056A1 (IBIO, published 2024).
Substitutions are numbered along the chain they refer to.

B1: SD-127612-afuc (antibody, V domains shown)
VH: QVQLVQSGAEVKKPGASVKVSCKASGYTFTSYDINWVRQAPGQRLEWMGWIFPGDGTSKYNEKFKGRVTITRDTSASTAYMELSSLRSEDTAVYYCARRLGSHWGQGTLVTVSS
VL: DIVLTQSPDSLAVSPGERATISCKASQSVDSDGDSYMNWYQQKPGQPPKLLIYGASNLESGVPDRFSGSGSGTDFTLTISRVEAEDVAVYYCQQSHEYPFTFGGGTKLEIK
notes: afucosylated (FUT8 knock-out CHO)
B2: SD-649072-afuc (antibody, V domains shown)
VH: B1 VH with S102T, H103V
VL: B1 VL with D9A, E17Q, S22T, D64A, S80N, R81P, E85N, V87T, V89N, G104Q
notes: as for B1

Experiments:
[1] = molecular target: T1, human EGFRvIII overexpressed on cells (F98npEGFRvIII, U87MG-EGFRvIII, FaDu-EGFRvIII) (human, UniProt P00533 25-1210); experiment: cell-based or functional assay
[2] = molecular target: T1, human EGFRvIII overexpressed on cells …; experiment: cell-based or functional assay; remark: listed apart in the source
[3] = molecular target: T1, human EGFRvIII overexpressed on cells …; experiment: flow cytometry, FaDu-EGFRvIII cells, n=3
[4] = molecular target: T1, human EGFRvIII overexpressed on cells …; experiment: flow cytometry, U87MG-EGFRvIII cells, n=3
[5] = molecular target: T2, human EGFRvIII, purified recombinant protein (Acro Biosystems Cat #EGI-H52H4) (human, UniProt P00533 25-645); experiment: ELISA, antigen coated at 1 ug/mL, anti-human IgG-HRP, n=3
T2 construct: Bought protein; the deletion must be applied; also called truncated human EGFRvIII; huEGFRvIII

[6] = molecular target: T3, wild type human EGFR1 on cells (F98 EGFR1; wild type U87MG; wild type FaDu) (human, UniProt P00533 25-1210); experiment: flow cytometry on wild type U87MG cells, anti-human IgG Fc Alexa Fluor 647, MFI
T3 construct: whole, on cells

[7] = molecular target: T2, human EGFRvIII, purified recombinant …; experiment: SPR (Carterra LSA), antibody captured on anti-human IgG, antigen injected, 1:1 Langmuir fit;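 further: EGFRvIII injected at five concentrations, fivefold serial dilution starting 500 nM, 5 min association then 15 min dissociation, double-referenced against interspot and buffer blank signals, global kinetic fit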
[8] = molecular target: T4, human EGFR, purified recombinant protein (Acro Biosystems Cat #EGR-H5222) (human, UniProt P00533 25-645); experiment: SPR (Carterra LSA), antibody captured on anti-human IgG, EGFR1 injected in a 5-fold series from 500 nM
T4 construct: Bought protein; also called EGFR1; full length human EGFR1

[9] = molecular target: T4, human EGFR, purified recombinant …; experiment: ELISA, plate coated with human EGFR1, anti-human IgG-HRP, OD450

Binder	ADCC EC50 (nM), U87MG-EGFRvIII cells with PBMC [1] [nM]	ADCC EC50 (nM), FaDu-EGFRvIII cells with PBMC [2] [nM]	EC50 [3] [nM]	EC50 [4] [nM]	EC50 [5] [nM]	binding result [6]	Kd [7] [nM]	koff [7] [s⁻¹]	kon [7] [M⁻¹ s⁻¹]	binding result [8]	binding result [9]
B1	0.0047	0.0051	5.27	6.05	0.156	no binding	57	0.0024	42000	no binding	–
B2	0.0066	0.0033	3.86	4.33	0.129	no binding	33	0.0017	51000	–	no binding
